Publication PMC10847778

Assays:
[1] = biological target: OhyA lacking helices α19 and α20 (OhyA(ΔHTH)), His-tagged (Staphylococcus aureus); assay: SEC-MALS; Superose 6 Increase 10/300 GL; 20 mM Tris, 200 mM NaCl, pH 7.6; 25 °C; protein at 2 mg/ml, 100 μl injected
[2] = biological target: OhyA lacking helices α19 and α20 (OhyA(ΔHTH)), His-tagged (Staphylococcus aureus); assay: mass photometry; OneMP mass photometer; final concentration 100 nM protein; dilute, equilibrium conditions
[3] = biological target: oleate hydratase (OhyA), recombinant full-length, His-tagged (Staphylococcus aureus); assay: SEC-MALS; Superose 6 Increase 10/300 GL; 20 mM Tris, 200 mM NaCl, pH 7.6; 25 °C; protein at 2 mg/ml, 100 μl injected
[4] = biological target: oleate hydratase (OhyA), recombinant full-length, His-tagged (Staphylococcus aureus); assay: cryo-EM single-particle images (no structure solved); grids of OhyA prepared in the absence of detergent
[5] = biological target: oleate hydratase (OhyA), recombinant full-length, His-tagged (Staphylococcus aureus); assay: mass photometry; OneMP mass photometer; final concentration 100 nM protein; dilute, equilibrium conditions

For “OhyA lacking helices α19 and α20 (OhyA(ΔHTH)), His-tagged (domain or fragment)”, the percent dimer [1] was 89.8%, the stoichiometry N [1] was 2 and the percent dimer [2] was 20%. The percent monomer [2] was 75%.

Substance “oleate hydratase (OhyA), recombinant full-length, His-tagged (enzyme)” has a percent dimer [3] of 84.6%, a stoichiometry N [3] of 2 and a stoichiometry N [4] of 4. For the same substance, the percent dimer [5] was 86% and the stoichiometry N [5] was 2.
